In data set [1] the target is T1, VEGF165 (recombinant human vascular endothelial growth factor, 165 aa form) (Homo sapiens, UniProt P15692-4 P15692-4:27-191). In words: filter; Kd1, X1 0.42, Kd2 ~100 nM. The settings on record: tags: gift from N. Ferrara, Genentech; chain copies: 2 (dimer, stated).
For data set [2], the target named is T1, VEGF165 (recombinant human vascular …). In words: filter; PBS, 0.01% HSA, 37 C; Kd1, X1 0.76, Kd2 182 nM. The settings on record: tags: gift from N. Ferrara, Genentech; chain copies: 2 (dimer, stated); label: 32P. As for the experimental part: (§1) Internally-labeled RNA ligands used for binding studies were prepared by in vitro transcription using T7 RNA polymerase (Milligan et al. (1987) Nucl. Acids Res. 15:8783) and were purified on denaturing polyacrylamide gels to ensure size homogeneity. All RNA ligands were diluted to about 1 nM in PBS, denatured at 90° C. for 2 minutes, and then cooled on ice prior to incubation with the protein. This denaturation/renaturation cycle performed at high dilution is necessary to ensure that the RNA is essentially free from dimers and other higher order aggregates. Concentrations of the stock solutions of VEGF, from which other dilutions were made, were determined from the absorbance reading at 280 nm using the calculated value for ε280 of 46,600 M^-1cm^-1 for the VEGF dimer (Gill et al. (1989) Anal. Biochem. 182:319). Data sets that define the binding curves were fit to either eq. 2 or eq. 5 by the non-linear least squares method using the software package Kaleidagraph (Synergy Software, Reading, Pa.). […]

The next data set has as its target bFGF (UniProt P09038 P09038:143-288). As to the kind of experiment: filter; specificity. The settings on record: label: 32P. As for the experimental part:
(§2) Dissociation constants were determined using the nitrocellulose filter partitioning technique.

The target of a further data set is antithrombin III (UniProt P01008 P01008:33-464). In words: filter; specificity. The settings on record: label: 32P. As for the experimental part: as §2
The target in data set [3] is T1, VEGF165 (recombinant human vascular …). In words: filter; PBS, 0.01% HSA, 37 C; Kd1, X1 0.76, Kd2 180 nM. The settings on record: tags: gift from N. Ferrara, Genentech; chain copies: 2 (dimer, stated); label: 32P; bulged hairpin. As for the experimental part: as §1
Data set [4] has the same target. In words: filter. The following applies: tags: gift from N. Ferrara, Genentech; chain copies: 2 (dimer, stated). As to the method: Internally-labeled RNA ligands used for binding studies were prepared by in vitro transcription using T7 RNA polymerase (Milligan et al. (1987) Nucl. Acids Res. 15:8783) and were purified on denaturing polyacrylamide gels to ensure size homogeneity. All RNA ligands were diluted to about 1 nM in PBS, denatured at 90° C. for 2 minutes, and then cooled on ice prior to incubation with the protein. This denaturation/renaturation cycle performed at high dilution is necessary to ensure that the RNA is essentially free from dimers and other higher order aggregates. Concentrations of the stock solutions of VEGF, from which other dilutions were made, were determined from the absorbance reading at 280 nm using the calculated value for ε280 of 46,600 M^-1cm^-1 for the VEGF dimer (Gill et al. (1989) Anal. Biochem. 182:319). Data sets that define the binding curves were fit to either eq. 2 or eq. 5 by the non-linear least squares method using the software package Kaleidagraph (Synergy Software, Reading, Pa.).
(§3) To this end, certain ligands were synthesized and tested for binding affinity. The binding studies were performed using the protocols described in Example 1.

The target is the same in data set [5]. As to the kind of experiment: inhibition; VEGF receptor binding. The settings on record: tags: gift from N. Ferrara, Genentech; chain copies: 2 (dimer, stated). As for the experimental part: VEGF was radioiodinated by the Iodegen method (Jakeman et al. (1992) J. Clin. Invest. 89:244) to a specific activity of 2.4×10^4 cpm/ng. Human umbilical vein endothelial cells (HUVECs) were plated in 24-well plates at a density of 1–2×10^5 cells/well and grown to confluence in EGM (Clonetics, San Diego, Calif.) media (24–48 hrs). At confluence, the cells were washed 3 times with PBS and incubated for 2 hrs at 4° C. in α-MEM serum-free media containing ^125I-labeled VEGF with or without unlabeled competitor (VEGF, EGF, or RNA). For experiments done with RNA, 0.2 units of placental RNase inhibitor (Promega, Madison, Wis.) were included in the media. […] At the end of the 2 hr incubation period, the supernatant was removed and the wells washed 2 times with PBS. HUVECs were then lysed with 1% triton X-100/1M NaOH and the amount of cell-associated ^125I-VEGF determined by gamma counting.
as §3

For data set [6] the target is unchanged. As to the kind of experiment: filter; Kd1, X1 0.68, Kd2 ~100 nM. The following applies: tags: gift from N. Ferrara, Genentech; chain copies: 2 (dimer, stated).
Data set [7] shares this target. As to the kind of experiment: filter; PBS, 0.01% HSA, 37 C; Kd1, X1 0.73, Kd2 82 nM. The settings on record: tags: gift from N. Ferrara, Genentech; chain copies: 2 (dimer, stated); label: 32P. As to the method: as §1
For data set [8] the target is unchanged. As to the kind of experiment: filter; Kd1, X1 0.74, Kd2 ~100 nM. The following applies: tags: gift from N. Ferrara, Genentech; chain copies: 2 (dimer, stated).
The target is the same in data set [9]. In words: filter; Kd1, X1 0.82, Kd2 10-100 nM. The following applies: tags: gift from N. Ferrara, Genentech; chain copies: 2 (dimer, stated).
The target is the same in data set [10]. As to the kind of experiment: filter; clone listed in families 1 and 2. The following applies: tags: gift from N. Ferrara, Genentech; chain copies: 2 (dimer, stated).
Data set [11] has the same target. As to the kind of experiment: filter; PBS, 0.01% HSA, 37 C; Kd1, X1 0.54, Kd2 181 nM. The following applies: tags: gift from N. Ferrara, Genentech; chain copies: 2 (dimer, stated); label: 32P. As for the experimental part: as §1
Data set [12] has the same target. As to the kind of experiment: filter; Kd1, X1 0.77, Kd2 10-100 nM. The following applies: tags: gift from N. Ferrara, Genentech; chain copies: 2 (dimer, stated).
Data set [13] shares this target. In words: FP filter; nitrocellulose filter; Kd1, X1 0.62, Kd2 ~100 nM. The settings on record: tags: gift from N. Ferrara, Genentech; chain copies: 2 (dimer, stated).
The target is the same in data set [14]. In words: filter; Kd1, X1 0.79, Kd2 ~100 nM. The settings on record: tags: gift from N. Ferrara, Genentech; chain copies: 2 (dimer, stated).
For data set [15] the target is unchanged. As to the kind of experiment: filter; PBS, 0.01% HSA, 37 C; Kd1, X1 0.45, Kd2 21 nM. The settings on record: tags: gift from N. Ferrara, Genentech; chain copies: 2 (dimer, stated); label: 32P. As to the method: as §1
Data set [16] has the same target. As to the kind of experiment: filter; Kd1, X1 0.50, Kd2 15 nM. The settings on record: tags: gift from N. Ferrara, Genentech; chain copies: 2 (dimer, stated).
The target is the same in data set [17]. In words: filter; PBS, 0.01% HSA, 37 C; Kd1, X1 0.56, Kd2 21 nM. The following applies: tags: gift from N. Ferrara, Genentech; chain copies: 2 (dimer, stated); label: 32P. As for the experimental part:
as §1

T1 sequence (P15692 other isoform, or with tags, fused parts or gaps): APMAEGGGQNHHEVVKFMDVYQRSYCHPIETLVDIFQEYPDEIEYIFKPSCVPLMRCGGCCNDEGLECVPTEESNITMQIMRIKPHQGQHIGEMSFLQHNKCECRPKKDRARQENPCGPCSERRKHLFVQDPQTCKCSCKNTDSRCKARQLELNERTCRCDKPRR
antithrombin III, sequence (P01008 33-464, one chain of several): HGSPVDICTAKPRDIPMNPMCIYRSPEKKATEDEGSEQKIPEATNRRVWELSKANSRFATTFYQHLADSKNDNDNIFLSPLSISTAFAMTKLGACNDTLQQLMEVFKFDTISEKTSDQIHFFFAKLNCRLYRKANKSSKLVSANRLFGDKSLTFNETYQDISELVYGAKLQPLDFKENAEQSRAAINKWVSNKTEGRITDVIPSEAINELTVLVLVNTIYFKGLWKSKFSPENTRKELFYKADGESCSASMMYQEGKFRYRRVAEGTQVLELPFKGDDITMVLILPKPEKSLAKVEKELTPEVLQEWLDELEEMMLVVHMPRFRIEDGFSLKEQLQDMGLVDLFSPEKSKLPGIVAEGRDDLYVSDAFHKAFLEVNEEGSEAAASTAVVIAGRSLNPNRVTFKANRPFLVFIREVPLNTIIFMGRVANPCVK
bFGF, sequence (P09038 143-288, one chain of several): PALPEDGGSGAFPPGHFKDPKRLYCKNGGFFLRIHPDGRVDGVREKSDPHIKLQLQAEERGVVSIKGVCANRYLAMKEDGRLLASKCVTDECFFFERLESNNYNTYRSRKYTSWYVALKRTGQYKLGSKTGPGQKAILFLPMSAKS

B1: 14A (ssRNA)
RNA: GGGAGACAAGAAUAACGCUCAAGCAACAGAGGCUGAUGGUAGACGCCGGCCAUUCGACAGGAGGCUCACAACAGGC
modifications: 2'-NH2 pyrimidines
As to B1, the dissociation constant (Kd) in [1] amounted to 0.7 nM.

B2: ligand 100t (ssRNA)
RNA: GGCCGGUAGUCGCAUGGCCCAUCGCGCCCGG
For the molecule B2, the values for the dissociation constant (Kd) (in [2]; with bFGF; with antithrombin III) were 0.42 nM, 1000 nM and 3 µM, respectively.

B3: ligand 12t (ssRNA)
RNA: GGAAGGGAACCUGCGUCUCGGCACCUUCG
For the molecule B3, the Kd in data set [3] came out at 1.1 nM.

B4: NX-176 (ssRNA)
RNA: ACCCUGAUGGUAGACGCCGGGGUG
modifications: modified variant of NX-107 (position code lost in text)
In the case of B4, the Kd in data set [4] amounted to 65 nM. In addition, the Ki in data set [5] was 10 nM.

B5: 41A (ssRNA)
RNA: GGGAGACAAGAAUAACGCUCAAAACGGAGUGGUAGGCGUUGGGUGCCAGGAAUUCGACAGGAGGCUCACAACAGGC
modifications: 2'-NH2 pyrimidines
As for B5, the dissociation constant Kd in data set [6] is 0.86 nM.

B6: NX-214 (mixed)
mixed: TTTTACCCUGAUGGUAGACGCCGGGGUGTTTTT
modifications: 2'-NH2/2'-OMe variant (position code lost in text); 5' and 3' phosphorothioate thymidine caps
With B6, in data set [4], the Kd was 0.2 nM. In addition, the inhibition constant (Ki) in data set [5] stood at 1 nM.

B7: NX-191 (mixed)
mixed: TTTTACCCUGAUGGUAGACGCCGGGGUGTTTTT
modifications: all 2'-OMe core; 5' and 3' phosphorothioate thymidine caps
Regarding B7, the Kd in [4] is 120 nM. In addition, in data set [5], the Ki was found to be 500 nM.

B8: NX-178 (mixed)
mixed: TTTTACCCUGAUGGUAGACGCCGGGGUGTTTTT
modifications: 2'-NH2 pyrimidines; 5' T*T*T*T* and 3' T*T*T*T*T phosphorothioate thymidine caps
Regarding B8, the Kd in [4] is 0.7 nM. In [5], the Ki turned out to be 1 nM.

B9: NX-215 (mixed)
mixed: TTTTACCCUGAUGGUAGACGCCGGGGUGTTTTT
modifications: as NX-213 plus internal phosphorothioate between A7 and U8
Consider B9, for which, in data set [4], the equilibrium dissociation constant (Kd) turned out to be 0.2 nM. Moreover, in [5], the Ki came to 1 nM.

B10: NX-213 (mixed)
mixed: TTTTACCCUGAUGGUAGACGCCGGGGUGTTTTT
modifications: 2'-NH2 pyrimidines; all purines 2'-OMe except four; 5' and 3' phosphorothioate thymidine caps
For the molecule B10, the equilibrium dissociation constant (Kd) in data set [4] turned out to be 0.2 nM. Moreover, the inhibition constant (Ki) in [5] was 1 nM.

B11: ligand 44t (ssRNA)
RNA: GGAAGCUUGAUGGGUGACACACGUCAUGCCGAGCU
Regarding B11, the figures for the Kd (with bFGF; with antithrombin III; in data set [7]) were 600 nM, 12 µM and 0.48 nM, respectively.

B12: 26B (ssRNA)
RNA: GGGAGGACGAUGCGGCACCUUCGUGGGGUCAAGGAGGGUCGCGAGGCCGCAGGAUCAACCGUGUGCAGACGACUCGCCCGA
modifications: 2'-NH2 pyrimidines
Turning to B12, the equilibrium dissociation constant (Kd) in data set [8] turned out to be 0.37 nM.

B13: 34B (ssRNA)
RNA: GGGAGGACGAUGCGGUGUGGUCAAUGUGGGGUAGGGCUGGUAGGGCAUUCCGUACUGGUGUGGUCAGACGACUCGCCCGA
modifications: 2'-NH2 pyrimidines
As for B13, the Kd in data set [9] came out at 0.068 nM.

B14: ssDNA b81 (ssDNA)
DNA: CTACCTACGATCTGACTAGCCCGAATGGGGCTGCGACTGCAGTGGACGTCACGTCGTTAGCTTACTCTCATGTAGTTCCT
In the case of B14, the Kd in data set [10] was 0.3 nM.

B15: ligand 126t (ssRNA)
RNA: GGAACGGUUCUGUGUGUGGACUAGCCGCGGCCGUU
As for B15, the dissociation constant Kd in [11] was 1.4 nM.

B16: 30B (ssRNA)
RNA: GGGAGGACGAUGCGGCAUGGUUGUGAACUGUUGUGAUCAAUGCGGGGAGGGUAAUGGUGGGUGGUCAGACGACUCGCCCGA
modifications: 2'-NH2 pyrimidines
Consider B16, for which the dissociation constant Kd in [12] is 0.034 nM.

B17: 17B (ssRNA)
RNA: GGGAGGACGAUGCGGCGCUGUGUUCAAUGCGGGGAUCGGGCCGGAGGAUGAACAAAUGGCGGGUCAGACGACUCGCCCGA
modifications: 2'-NH2 pyrimidines
As for B17, in data set [13], the Kd worked out at 0.028 nM.

B18: 24A (ssRNA)
RNA: GGGAGACAAGAAUAACGCUCAACCCUGAUGGUAGACGCCGGGGUGCCGGAAUUCGACAGGAGGCUCACAACAGGC
modifications: 2'-NH2 pyrimidines
Turning to B18, the dissociation constant (Kd) in data set [14] is 0.71 nM.

B19: ligand 84 (ssRNA)
RNA: GGGAGCUCAGAAUAAACGCUCAAUAGUUGGAGGCCUGUCCUCGCCGUAGAGCGUUCGACAUGAGGCCCGGAUCCGGC
In the case of B19, the Kd in [15] came to 0.82 nM.

B20: 32B (ssRNA)
RNA: GGGAGGACGAUGCGGCAACAUUGGCACCAAUGCUCUGUGUUAAUGUGGGGUGGGAACGGCGCCGCAGACGACUCGCCCGA
modifications: 2'-NH2 pyrimidines
Consider B20, for which the Kd in [16] stood at 0.05 nM.

B21: ligand 12 (ssRNA)
RNA: GGGAGCUCAGAAUAAACGCUCAAGCAGACGAAGGGAACCUGCGUCUCGGCACCUUCGACAUGAGGCCCGGAUCCGGC
For B21, the equilibrium dissociation constant (Kd) in data set [17] came out at 0.48 nM.

Source of the values: US5811533, “High-affinity oligonucleotide ligands to vascular endothelial growth factor (VEGF)” (NeXstar Pharmaceuticals, Inc.).
